Results: PMC10467038 (Science translational medicine, 2023)
Values belong to the binder of their own block, whether it stands above or below them.

Legend:
[1] = target: complement C1q (purified) (UniProt P02745 23-245; P02746 28-253; P02747 29-245); experiment: ELISA
[2] = target: the molecule itself; experiment: negative staining electron microscopy

Chain of complement C1q (purified) (P02745 23-245, chain 1 of 3): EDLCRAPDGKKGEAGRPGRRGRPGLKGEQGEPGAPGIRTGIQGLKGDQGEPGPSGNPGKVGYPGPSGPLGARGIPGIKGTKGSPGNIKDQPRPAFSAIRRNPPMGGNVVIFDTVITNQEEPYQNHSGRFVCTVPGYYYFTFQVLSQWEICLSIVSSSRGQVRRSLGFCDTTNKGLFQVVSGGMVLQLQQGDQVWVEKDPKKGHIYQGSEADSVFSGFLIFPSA
Chain of complement C1q (purified) (P02746 28-253, chain 2 of 3): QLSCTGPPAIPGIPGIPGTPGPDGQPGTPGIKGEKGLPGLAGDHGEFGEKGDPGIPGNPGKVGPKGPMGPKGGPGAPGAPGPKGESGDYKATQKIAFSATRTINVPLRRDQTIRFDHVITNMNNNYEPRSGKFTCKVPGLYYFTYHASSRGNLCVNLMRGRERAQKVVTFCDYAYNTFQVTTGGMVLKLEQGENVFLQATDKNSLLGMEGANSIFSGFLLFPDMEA
Chain of complement C1q (purified) (P02747 29-245, chain 3 of 3): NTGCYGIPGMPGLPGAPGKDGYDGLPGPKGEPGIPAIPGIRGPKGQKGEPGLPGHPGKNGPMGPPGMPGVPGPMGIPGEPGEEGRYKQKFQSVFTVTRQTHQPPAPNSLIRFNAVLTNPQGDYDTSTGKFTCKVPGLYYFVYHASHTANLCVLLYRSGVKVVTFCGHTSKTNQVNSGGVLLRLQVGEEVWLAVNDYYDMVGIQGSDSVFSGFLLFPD

Kd [1]: ~2 nM
B1: Nptxr/Nptx2 coexpressed on a stable doxycycline-inducible CHO cell line (complex)
chain 1: MKFLAVLLAAGMLAFLGAVICIIASVPLAASPARALPGGADNASVASGAAASPGPQRSLSALHGAGGSAGPPALPGAPAASAHPLPPGPLFSRFLCTPLAAACPSGAQQGDAAGAAPGEREELLLLQSTAEQLRQTALQQEARIRADQDTIRELTGKLGRCESGLPRGLQGAGPRRDTMADGPWDSPALILELEDAVRALRDRIDRLEQELPARVNLSAAPAPVSAVPTGLHSKMDQLEGQLLAQVLALEKERVALSHSSRRQRQEVEKELDVLQGRVAELEHGSSAYSPPDAFKISIPIRNNYMYARVRKALPELYAFTACMWLRSRSSGTGQGTPFSYSVPGQANEIVLLEAGHEPMELLINDKVAQLPLSLKDNGWHHICIAWTTRDGLWSAYQDGELQGSGENLAAWHPIKPHGILILGQEQDTLGGRFDATQAFVGDIAQFNLWDHALTPAQVLGIANCTAPLLGNVLPWEDKLVEAFGGATKAAFDVCKGRAKA
chain 2: GAQDSPAPGSRFVCTALPPEAVHAGCPLPAMPMQGGAQSPEEELRAAVLQLRETVVQQKETLGAQREAIRELTGKLARCEGLAGGKARGAGATGKDTMGDLPRDPGHVVEQLSRSLQTLKDRLESLEHQLRANVSNAGLPGDFREVLQQRLGELERQLLRKVAELEDEKSLLHNETSAHRQKTESTLNALLQRVTELERGNSAFKSPDAFKVSLPLRTNYLYGKIKKTLPELYAFTICLWLRSSASPGIGTPFSYAVPGQANEIVLIEWGNNPIELLINDKVAQLPLFVSDGKWHHICVTWTTRDGMWEAFQDGEKLGTGENLAPWHPIKPGGVLILGQEQDTVGGRFDATQAFVGELSQFNIWDRVLRAQEIVNIANCSTNMPGNIIPWVDNNVDVFGGASKWPVETCEERLLDL

B2: neuronal pentraxin 2 (purified, recombinant) (natural protein, UniProt P47972 16-431, looked up)
chain: B1 chain 2
stoichiometry N [2]: 6
